Results taken from the supplement of paper PMC10126150.
± gives the standard deviation of the averaged measurements.

Tested on: ATP
Experiment: switch fluorescence ratio, 500 uM ATP over buffer (Cy3 cluster intensity, sum of 5 cycles each) (fold (ratio)); higher = stronger signal-on switching upon ATP binding; sequences stand for … in TCGTCGGCAGCGTCAGATGTGTATAAGAGACAGTTTTTTTTTTTTTTTTTTTTTTTTT…TC
Details: aptamer strand: ATP DNA aptamer (quencher-CACCTGGGGGAGTATTGCGGAGGAAGG + anchor), 100 nM annealed; ATP concentration: 500 uM
Method in brief: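 The quencher-labelled ATP aptamer, at 100 nM, was annealed to Cy3-labelled switching-strand clusters on a modified Illumina MiSeq flow-cell. The clusters were imaged in selection buffer, then after 15 min with 500 uM ATP at 22 °C, and this buffer/ATP cycle ran five times with NaOH stripping and re-annealing between runs. Per-cluster fluorescence ratios, summed target-cycle over summed buffer-cycle Cy3 intensity, were averaged per switch-domain sequence. Clusters outside 100-1000 RFU were excluded.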
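Note: ATP exposure 15 min at 22 °C before imaging.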

| Sequence | switch fluorescence ratio |
| --- | --- |
| TTTGGCCAAG | 0.996 ± 0.029 |
| TGGTGCGGGG | 0.999 ± 0.026 |
| AAAGAATGGT | 0.991 ± 0.054 |
| AATATGTGGG | 0.975 ± 0.024 |
| TGTAACCTTT | 1.04 ± 0.018 |
| GCTAATATTA | 1.03 ± 0.021 |
| TTTTGGGAAT | 1.04 ± 0.052 |
| TTAATTTATT | 0.987 ± 0.035 |
| GATCGATTTG | 0.998 ± 0.023 |
| TAGGAAATCT | 1.03 ± 0.017 |
| CGTGCTCAGA | 0.996 ± 0.025 |
| AGCGCGAATG | 1.01 ± 0.018 |
| CGGGGTGGTG | 1.04 ± 0.067 |
| CGGGGTGGGT | 0.978 ± 0.028 |
| GAGACTATTT | 0.976 ± 0.056 |
| CCGGAGGGGG | 1.05 ± 0.02 |
| GGTGTTATAT | 1.02 ± 0.04 |
| GGCATGCCAT | 0.9908 ± 0.0077 |
| AGCCAGTTTT | 0.9892 ± 0.0073 |
| GACTTTAGGG | 1.02 ± 0.065 |
| ATCAGTGTGG | 0.967 ± 0.038 |
| TAATGTTTAG | 0.99019 ± 0.00022 |
| GTCTTAACGA | 0.981 ± 0.015 |
| CCAGTAGAGC | 1.01 ± 0.034 |
| CTTAGATGGT | 0.975 ± 0.015 |
| CATGTTACGG | 1.055 ± 0.0065 |

| Sequence | switch fluorescence ratio |
| --- | --- |
| TCGGTGTCTA | 0.985 ± 0.02 |
| TAATTGAAGA | 0.971 ± 0.012 |
| ATATAGAAAG | 1.02 ± 0.045 |
| GAGACGCTTT | 1.04 ± 0.049 |
| GGGGGGTTCC | 1.02 ± 0.044 |
| TTTTTGATAA | 0.9683 ± 0.0063 |
| CCCATTGGGG | 1.03 ± 0.011 |
| ACCATTATTT | 1.03 ± 0.014 |
| TCCCTGGTAT | 1.04 ± 0.014 |
| GCACGTCGAA | 1.08 ± 0.032 |
| GGAAGTGTGG | 1 ± 0.05 |
| GTGGTGGCAG | 0.979 ± 0.015 |
| CATCTATCCG | 0.963 ± 0.012 |
| GGTGAAGCCT | 0.991 ± 0.047 |
| TCCGGGATCC | 1.25 ± 0.04 |
| GGTCCGGCAC | 1.079 ± 0.009 |
| TTCTTGTTTT | 1.01 ± 0.016 |
| AGTTTGATGA | 0.989 ± 0.028 |
| TATGGGCAGG | 1.04 ± 0.022 |
| GATTTGATGT | 1 ± 0.03 |
| GTGACCGGCG | 1.03 ± 0.053 |
| CCTGGCTTTT | 1.047 ± 0.007 |
| TTTGGAGGGA | 1.48 ± 0.8 |
| TTGAAAGTTT | 1.01 ± 0.026 |
| AATCTCTGGG | 0.992 ± 0.0015 |
| GATTTGAAGG | 1.01 ± 0.035 |

| Sequence | switch fluorescence ratio |
| --- | --- |
| GTTGAAAAAA | 1.31 ± 0.73 |
| GCATTGTACG | 0.991 ± 0.03 |
| GCTTTCGTTA | 1.018 ± 0.0071 |
| CGATGCATGG | 1.71 ± 0.19 |
| GCAGTTATTT | 0.966 ± 0.026 |
| ACTTCTAAAC | 1.07 ± 0.044 |
| TTATCTCACT | 1.06 ± 0.014 |
| TTTATGAGCT | 1.03 ± 0.014 |
| TGCGCACGGG | 1.03 ± 0.019 |
| TTGTGATTGC | 1.03 ± 0.089 |
| TCATTAGAAA | 1 ± 0.013 |
| TTGCGCAATT | 1.51 ± 0.47 |
| TTGTGTTGTA | 1 ± 0.042 |
| CGACGTATTG | 1.02 ± 0.03 |
| GTGTTACGGG | 0.985 ± 0.016 |
| ACCAGGATGC | 1.225 ± 0.0042 |
| CGACTAAAAT | 1.013 ± 0.0066 |
| AATCGTAGTG | 0.9895 ± 0.0071 |
| ATAGGCATTT | 1.03 ± 0.013 |
| TTTCGGTGTT | 0.981 ± 0.041 |
| CATGTAGAGG | 0.976 ± 0.033 |
| TTTTGATCGG | 0.982 ± 0.037 |
| TACGGGGGG | 1.02 ± 0.035 |
| TATGCTGGAG | 1.02 ± 0.0047 |
| TTTTATACGT | 1.01 ± 0.016 |
| CAGATGGGTA | 0.971 ± 0.025 |

| Sequence | switch fluorescence ratio |
| --- | --- |
| CGGGAACTTT | 1.02 ± 0.065 |
| TGATATATGG | 0.9872 ± 0.0081 |
| GGGCAGCGCA | 0.99057 ± 0.00048 |
| GGGCAAGTCA | 1.02 ± 0.014 |
| TTCATTAGCT | 1 ± 0.025 |
| AGGGATCGG | 1 ± 0.05 |
| CGGTGCTTGT | 1.02 ± 0.037 |
| CAGTCCGGGC | 0.991 ± 0.028 |
| GGAACCCGTG | 0.997 ± 0.048 |
| GGATTTTAGC | 0.9835 ± 0.0024 |
| TTCATCTCGC | 1.1 ± 0.1 |
| TCTTACGGAC | 1.31 ± 0.017 |
| GGTCCTCTTT | 0.98275 ± 0.00076 |
| TATCATGTGT | 0.977 ± 0.03 |
| TTATTTGTAC | 1.052 ± 0.0021 |
| ATTGTGCTGA | 0.9481 ± 0.0073 |
| GGGAGATAGA | 0.982 ± 0.052 |
| TGGGGAAAAT | 1.033 ± 0.0065 |
| TTCGGGTCGC | 0.963 ± 0.049 |
| GGCCCCTTAG | 1.02 ± 0.03 |
| CGATATCGTG | 1 ± 0.019 |
| GGGGAAGCCT | 1.07 ± 0.03 |
| TTAATAGTTA | 0.992 ± 0.028 |
| ATCTTAGTAA | 0.9998 ± 0.0099 |
| CAGTGGGACT | 0.974 ± 0.024 |
| AAAGTAGAGG | 0.969 ± 0.029 |

| Sequence | switch fluorescence ratio |
| --- | --- |
| CTGGAATTCA | 1.02 ± 0.049 |
| TAATGGGTAA | 1.01 ± 0.065 |
| ATTCACCGCG | 1.155 ± 0.0057 |
| TGAGTTCGAA | 1 ± 0.028 |
| TGGCATTCGT | 0.9757 ± 0.0091 |
| GGTGGAAAAG | 1 ± 0.023 |
| TTTGAGAATC | 0.977 ± 0.017 |
| GAGTGAGTCG | 0.981 ± 0.022 |
| CATGCTGGGT | 1.0358 ± 0.001 |
| GTATTCGCAA | 4.73 ± 0.9 |
| CTGGGGTAGG | 1.04 ± 0.018 |
| ATATTGTTTG | 1.01 ± 0.1 |
| CTGGCGTATG | 0.997 ± 0.036 |
| TGGTGGGATG | 0.977 ± 0.021 |
| TTTTCAATTT | 0.9758 ± 0.0064 |
| GTTTCTTTTA | 0.99 ± 0.02 |
| GTGGCCCTAT | 0.998 ± 0.027 |
| ATTTCAGTTG | 1.011 ± 0.006 |
| GGGTTGGGGT | 0.997 ± 0.041 |
| GGGGTAAGTA | 0.986 ± 0.027 |
| CAAAGTTTCG | 1.04 ± 0.0012 |
| AATGGGGGG | 0.986 ± 0.039 |
| GATAGGCAGG | 0.998 ± 0.019 |
| GTAAAAACTC | 1.03 ± 0.024 |
| CAGTGATGAG | 1.03 ± 0.012 |
| CCGTGCAGTA | 3.14 ± 1.2 |

| Sequence | switch fluorescence ratio |
| --- | --- |
| GTGGGTGTCC | 1.01 ± 0.017 |
| CTTTGGTGTT | 1.01 ± 0.017 |
| GAGTTAATGT | 1.01 ± 0.043 |
| GAAACAGACA | 1.08 ± 0.035 |
| TTGTCAATGT | 1.06 ± 0.053 |
| AGGGGAATAT | 1.03 ± 0.017 |
| TTAGGGGCGT | 0.989 ± 0.013 |
| AAAGGCCCCC | 1.0047 ± 0.00068 |
| GATTGGGGGA | 0.984 ± 0.036 |
| AGATATGCGT | 1.025 ± 0.0013 |
| TTTCCGTTTG | 1.16 ± 0.32 |
| GGACCGTTTT | 0.998 ± 0.016 |
| CGTTGGGCTC | 1.019 ± 0.0051 |
| TCACGTTTTT | 1.01 ± 0.031 |
| TTTTTTGGCA | 0.982 ± 0.035 |
| CCAAGGCGAT | 2.33 ± 1.8 |
| TTTTGTAATG | 0.991 ± 0.035 |
| ATAACTGCGG | 1.02 ± 0.012 |
| AAGCTTTACG | 1.052 ± 0.0079 |
| GTAAATGGGG | 0.975 ± 0.011 |
| TTTTTCGCGG | 1.01 ± 0.015 |
| AGTCGGACTT | 0.993 ± 0.01 |
| AGGGTGATAC | 1.61 ± 0.62 |
